In patent publication US20220411483A1 (Chugai, published 2022):

T1: FcγRIIa R type extracellular domain with C-terminal His tag (human, UniProt P12318 34-217)
T1 construct: extracellular domain; also called FcgRIIaR; not shown: His tag at the C terminus
T1 sequence (looked up): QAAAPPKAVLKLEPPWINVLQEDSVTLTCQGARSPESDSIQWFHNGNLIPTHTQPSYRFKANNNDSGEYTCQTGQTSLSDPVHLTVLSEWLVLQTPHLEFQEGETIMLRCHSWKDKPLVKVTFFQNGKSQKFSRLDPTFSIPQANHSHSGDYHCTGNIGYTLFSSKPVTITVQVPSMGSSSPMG

T2: FcγRIIb extracellular domain with C-terminal His tag (human, UniProt P31994 43-217)
T2 construct: extracellular domain; also called FcgRIIb; not shown: His tag at the C terminus
T2 sequence (looked up): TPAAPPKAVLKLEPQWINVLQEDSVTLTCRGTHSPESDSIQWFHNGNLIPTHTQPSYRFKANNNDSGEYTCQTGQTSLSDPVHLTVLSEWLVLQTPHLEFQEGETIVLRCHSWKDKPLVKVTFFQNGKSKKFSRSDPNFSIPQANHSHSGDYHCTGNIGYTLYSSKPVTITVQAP

B1: IL6R-BP490/IL6R-L (antibody, human IgG1, kappa, name in EU numbering)
heavy: QVQLQESGPGLVKPSETLSLTCAVSGHSISHDHAWSWVRQPPGEGLEWIGFISYSGITNYNPSLQGRVTISRDNSKNTLYLQMNSLRAEDTAVYYCARSLARTTAMDYWGEGTLVTVSSASTKGPSVFPLAPSSKSTSGGTAALGCLVKDYFPEPVTVSWNSGALTSGVHTFPAVLQSSGLYSLSSVVTVPSSSLGTQTYICNVNHKPSNTKVDKKVEPKSCDKTHTCPPCPAPELLGDDSVFLFPPKPKDTLMISRTPEVTCVVIDVAEEDGEVKFNWYVDGVEVHNAKTKPREEQYNSTYRVVSVLTVLHQDWLNGKEYKCKVSNKALPRPIEKTISKAKGQPREPQVYTLPPSRDELTKNQVSLTCLVKGFYPSDIAVEWESNGQPENNYKTTPPVLDSDGSFFLYSKLTVDKSRWQQGNVFSCSVMHEALHNHYTQESLSLSP
light: not shown
notes: human IgG1
B2: IL6R-BP531/IL6R-L (antibody, human IgG1, kappa, name in EU numbering)
heavy: QVQLQESGPGLVKPSETLSLTCAVSGHSISHDHAWSWVRQPPGEGLEWIGFISYSGITNYNPSLQGRVTISRDNSKNTLYLQMNSLRAEDTAVYYCARSLARTTAMDYWGEGTLVTVSSASTKGPSVFPLAPSSKSTSGGTAALGCLVKDYFPEPVTVSWNSGALTSGVHTFPAVLQSSGLYSLSSVVTVPSSSLGTQTYICNVNHKPSNTKVDKKVEPKSCDKTHTCPPCPAPDLLGDDSVFLFPPKPKDTLMISRTPEVTCVVIDVGEEDGEVKFNWYVDGVEVHNAKTKPREEQDNSTYRVVSVLTVLHQDWLNGKEYKCKVSNKALPRPIEKTISKAKGQPREPQVYTLPPSRDELTKNQVSLTCLVKGFYPSDIAVEWESNGQPENNYKTTPMVLDSDGSFFLYSKLTVDKSRWQQGNVFSCSVMHEALHNHYTQESLSLSP
light: not shown
notes: human IgG1
B3: IL6R-BP507/IL6R-L (antibody, human IgG1, kappa, name in EU numbering)
heavy: QVQLQESGPGLVKPSETLSLTCAVSGHSISHDHAWSWVRQPPGEGLEWIGFISYSGITNYNPSLQGRVTISRDNSKNTLYLQMNSLRAEDTAVYYCARSLARTTAMDYWGEGTLVTVSSASTKGPSVFPLAPSSKSTSGGTAALGCLVKDYFPEPVTVSWNSGALTSGVHTFPAVLQSSGLYSLSSVVTVPSSSLGTQTYICNVNHKPSNTKVDKKVEPKSCDKTHTCPPCPAPDLLGDDSVFLFPPKPKDTLMISRTPEVTCVVIDVAEEDGPVKFNWYVDGVEVHNAKTKPREEQYNSTYRVVSVLTVLHQDWLNGKEYKCKVSNKALPRPIEKTISKAKGQPREPQVYTLPPSRDELTKNQVSLTCLVKGFYPSDIAVEWESNGQPENNYKTTPPVLDSDGSFFLYSKLTVDKSRWQQGNVFSCSVMHEALHNHYTQESLSLSP
light: not shown
notes: human IgG1
B4: IL6R-BP506/IL6R-L (antibody, human IgG1, kappa, name in EU numbering)
heavy: QVQLQESGPGLVKPSETLSLTCAVSGHSISHDHAWSWVRQPPGEGLEWIGFISYSGITNYNPSLQGRVTISRDNSKNTLYLQMNSLRAEDTAVYYCARSLARTTAMDYWGEGTLVTVSSASTKGPSVFPLAPSSKSTSGGTAALGCLVKDYFPEPVTVSWNSGALTSGVHTFPAVLQSSGLYSLSSVVTVPSSSLGTQTYICNVNHKPSNTKVDKKVEPKSCDKTHTCPPCPAPDLLGDDSVFLFPPKPKDTLMISRTPEVTCVVIDVAEEDGPVKFNWYVDGVEVHNAKTKPREEQDNSTYRVVSVLTVLHQDWLNGKEYKCKVSNKALPRPIEKTISKAKGQPREPQVYTLPPSRDELTKNQVSLTCLVKGFYPSDIAVEWESNGQPENNYKTTPPVLDSDGSFFLYSKLTVDKSRWQQGNVFSCSVMHEALHNHYTQESLSLSP
light: not shown
notes: human IgG1

Key:
Assay in all cases: SPR, antibody captured, FcgR analyte
[1] = target: T3, FcγRIa extracellular domain with C-terminal His tag (human, UniProt P12314 16-292)
T3 construct: also called FcgRIa; CD64; not shown: His tag at the C terminus

[2] = target: T1, FcγRIIa R type extracellular domain …
[3] = target: T2, FcγRIIb extracellular domain with …

T3 sequence (P12314 16-292): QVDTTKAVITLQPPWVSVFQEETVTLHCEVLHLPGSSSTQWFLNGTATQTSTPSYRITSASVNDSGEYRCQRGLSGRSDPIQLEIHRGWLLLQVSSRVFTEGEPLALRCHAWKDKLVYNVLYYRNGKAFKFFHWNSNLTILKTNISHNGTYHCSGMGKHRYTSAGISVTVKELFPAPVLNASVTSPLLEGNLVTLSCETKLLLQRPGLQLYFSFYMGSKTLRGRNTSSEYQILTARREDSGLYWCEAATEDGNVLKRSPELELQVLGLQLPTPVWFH

Binder	Kd [1] [nM]	Kd [2] [nM]	Kd [3] [nM]
B1	4.5	110	2.4
B2	9.4	120	3.8
B3	2.6	100	2.9
B4	3.1	120	3.4
